Source: the RNAGym collection of RNA variant scans (doi:10.7554/elife.90254)

B1: LINE1-mini (parent)
chain: GGCAGAGCUCAACACAGCGUGGCAAAGUGGCUGUGGCUAGACUGCC

Variants of: B1
Experiment: self-cleavage, relative activity (ratio to wild type); higher = more cleavage; in vitro, sequencing; the parent is a self-cleaving ribozyme

| Variant | self-cleavage |
| --- | --- |
| GGCAGAGCUCAACACAGCGUGGCACAGUGGAUGUGGCUAGACUGCC [A25C C31A] | 0.09 |
| GGCAAAGCUCAACACAGCGUGGCACAGUGGCUGUGGCUAGACUGCC [G5A A25C] | 0.07 |
| CGCAGAGCUCAACACAGCGUGGCAAAGUGGCGGUGGCUAGACUGCC [G1C U32G] | 0.04 |
| GGCAGAGCUUAACACAGCGUGGCAAAGUGGCUGUGGCUAGAUUGCC [C10U C42U] | 0.1 |
| GGCAGAGCACAACACAGCGUGGCAAAGUGGCUGUGGCGAGACUGCC [U9A U38G] | 0.22 |
| GGCAGAGCACAACACAGCGUGGCAAAGUGGCUGUGGCAAGACUGCC [U9A U38A] | 0.08 |
| GGCAGAGCUCAACGCAGCGUGGCAAAUUGGCUGUGGCUAGACUGCC [A14G G27U] | 0.42 |
| GGCAGAGCUCAACACAGCGUGGCAAAGUGGCUGUGGUUAUACUGCC [C37U G40U] | 0.16 |
| GGCAGAGCUUAACACAGCGUGGCGAAGUGGCUGUGGCUAGACUGCC [C10U A24G] | 0.35 |
| GGCAGAGCUCAACACAGUGUGGCAAAGUGGCUGGGGCUAGACUGCC [C18U U34G] | 0.03 |
| GACAGAGCUCAACACAGCGUGGCAGAGUGGCUGUGGCUAGACUGCC [G2A A25G] | 0.23 |
| GGCAGAGCUCAACACAGCGUGGCAAAGUGCCUGUGGCCAGACUGCC [G30C U38C] | 0.49 |
| GGCAGAGCUAAACACAGCGUGGCAAAGUGGCUGGGGCUAGACUGCC [C10A U34G] | 0.04 |
| GGCAGAGCUCAACACAGCGUGGCAAAGUGUCUGUGGUUAGACUGCC [G30U C37U] | 0.05 |
| GGCAGAGCUCAACACGGCGUGGCAAAGUGACUGUGGCUAGACUGCC [A16G G30A] | 0.67 |
| GGCAGAGCUCAACACAGCGUGGCAAAGUGACUUUGGCUAGACUGCC [G30A G33U] | 0.08 |
| GGCAGAGCUCAACACAGCGUGGCAAAGUGGCUGUGGCUAGUCUCCC [A41U G44C] | 0.49 |
| GGCAGAGCUCAACACAGCGUGGCAAAGUGGCUGUGGCUAGACUGAC [C45A] | 0.64 |
| GGCAGAGCUCAACACAGCAUGGCAAAGUGGCUGUGGCUAGAGUGCC [G19A C42G] | 0.04 |

| Variant | self-cleavage |
| --- | --- |
| GGCAGAGUUCAACACAGCGUGGAAAAGUGGCUGUGGCUAGACUGCC [C8U C23A] | 0.21 |
| GGCAGAGCUCAACACAGCGUGGCAAAGUGGCUGUCGAUAGACUGCC [G35C C37A] | 0.08 |
| GGCAGAGCUCAACACCGCGUGGCAAAGUGGCUGUAGCUAGACUGCC [A16C G35A] | 0.06 |
| GGCAGAGCUCAACACAGCGUGGCUAAGUGGCUGUGGCUAGACCGCC [A24U U43C] | 0.18 |
| GGCAGAGGUCAACACAGCGUGGCAAAGUGGCUGUGACUAGACUGCC [C8G G36A] | 0.18 |
| GGCAGAGCUCACCACAGCGUGGCACAGUGGCUGUGGCUAGACUGCC [A12C A25C] | 0.03 |
| GGCUGAGCUCAAAACAGCGUGGCAAAGUGGCUGUGGCUAGACUGCC [A4U C13A] | 0.12 |
| GGCAGAGCUCAACACAGCGUGGCAACGGGGCUGUGGCUAGACUGCC [A26C U28G] | 0.66 |
| GGCAGAGCUCAAAACAGCUUGGCAAAGUGGCUGUGGCUAGACUGCC [C13A G19U] | 0.09 |
| GGCAGAGUUCAACACAGCGUGGCAGAGUGGCUGUGGCUAGACUGCC [C8U A25G] | 0.13 |
| GGCAGAGCUCAACACAGCGUGGCAAAGUGGUUGUGGCUAGACAGCC [C31U U43A] | 0.06 |
| GGCAGAGCUCAACACAGCGUGGCAAAUUGGCUGUCGCUAGACUGCC [G27U G35C] | 0.09 |
| GGCAGAGCUCAAAACAGCGUGGCAAAGUGGCUGUGGCUAGACUUCC [C13A G44U] | 0.12 |
| GGCAGAGCUCAACACAGCGCGGCAAAGUGGCUGGGGCUAGACUGCC [U20C U34G] | 0.22 |
| UGCACAGCUCAACACAGCGUGGCAAAGUGGCUGUGGCUAGACUGCC [G1U G5C] | 0.04 |
| GGCAGAGCUCAACACAGCGUGGCAAACUGGCUGUGGCGAGACUGCC [G27C U38G] | 0.02 |
| GGCAUAGCUCAACACAGCGUGGCAAAGUGGCUGUGGCUAGAGUGCC [G5U C42G] | 0.04 |
| GGCAGAGCUCAACACAGCGUGGCAAAGCGGCUGUGGCUAGACUGCC [U28C] | 0.73 |
| GGCAGAGCUCAACACAGCGUGGCAAGGUGGCAGUGGCUAGACUGCC [A26G U32A] | 0.08 |

| Variant | self-cleavage |
| --- | --- |
| GGCAGAGCUCAACACAACGUGGCAAAUUGGCUGUGGCUAGACUGCC [G17A G27U] | 0.31 |
| CGCAGACCUCAACACAGCGUGGCAAAGUGGCUGUGGCUAGACUGCC [G1C G7C] | 0.02 |
| GGCAGAGCGCAACACAGCGUGGCAAAGUGGCUGUGUCUAGACUGCC [U9G G36U] | 0.12 |
| GGCAGAGCUCAACACAGCGUGGCAAAGUGGCCGUGUCUAGACUGCC [U32C G36U] | 0.06 |
| GGCAGAGCUCAACACAGCGUGGCAAAGUAGCCGUGGCUAGACUGCC [G29A U32C] | 0.18 |
| GGCAGAUCUCAACACAGCGUGGCAAAGUGGCUGUGGCUAGACUGCC [G7U] | 0.1 |
| GGCGGAGCUCAACACAGAGUGGCAAAGUGGCUGUGGCUAGACUGCC [A4G C18A] | 0.31 |
| GGCAGAGAUCAACACAGCGUGGCAAAGUGGCUUUGGCUAGACUGCC [C8A G33U] | 0.18 |
| GGCAGAGCUCAACACAGCGUGACAAAGUGGCUGUGGCUAGACUGUC [G22A C45U] | 1.44 |
| GGCAGAGCCCAACACAGGGUGGCAAAGUGGCUGUGGCUAGACUGCC [U9C C18G] | 0.03 |
| GGCAGAGCUCAACACAGCGUGGCAAAGAGGCUGUGGCUAGAUUGCC [U28A C42U] | 0.22 |
| GGCAGAGCUCAACAAAGCGCGGCAAAGUGGCUGUGGCUAGACUGCC [C15A U20C] | 0.04 |
| GGCAGAGCUCAACACAGCGGGGCAAAGUGGCUGUGGCUAGACUACC [U20G G44A] | 0.25 |
| GGCAGAGCUCAACACAGCGUGGGAAAGUGGCUCUGGCUAGACUGCC [C23G G33C] | 0.03 |
| GGCAGAGCUCAACACAGCGUGGCAAAGUGGCUGAGGCUAGGCUGCC [U34A A41G] | 0.05 |
| GUCAGAGCUCAACACAGCGUGGCAGAGUGGCUGUGGCUAGACUGCC [G2U A25G] | 0.03 |
| GGCAGAGCUCAACACAGCGUGGCAAAGUGACUGUGGGUAGACUGCC [G30A C37G] | 0.06 |
| GGAAGAUCUCAACACAGCGUGGCAAAGUGGCUGUGGCUAGACUGCC [C3A G7U] | 0.4 |
